Measurements taken from the supplement of paper PMC9170038.

Experiments:
MS2 coat protein = experiment: apparent KD of MS2 coat protein; designed switch direction (-1 OFF switch, 1 ON switch): 1; higher = weaker reporter binding
Procedure, shortened: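 Transcription of designed RNA switches on Illumina chips was done by stalled E. coli RNA polymerase. SNAP-549-labelled MS2 coat protein was then titrated in doubling steps from 0.7 or 1.5 nM to 3 µM, with steps of 0.8–1.5 h at the lowest and 10–20 min at the highest concentration. The per-design median over clusters of curve-fitted normalised fluorescence is reported as apparent KD.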

[1] = tested on: K4 kissing-loop RNA reporter; experiment: apparent KD of K4 kissing-loop reporter; higher = weaker reporter binding; conditions: Eterna round: R107;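 further: bound reporter read as fluorescence of individual clusters on recovered sequencing chips by microscopy, with normalized cluster intensities fitted with a binding model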
Method: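 RNA-MaP round R107: designed RNA switches with theophylline, tryptophan, arginine or FMN aptamers are transcribed on-chip within common flanks. They are titrated with a labelled K4 kissing-loop RNA reporter in RNA-MaP buffer (100 mM Tris pH 7.5, 80 mM KCl, 4 mM MgCl2), without ligand or with the indicated ligand. Median apparent KD per design.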

[2] = input ligand: microRNA oligo, concentration not stated
[3] = Eterna round: R95, input ligand: FMN 200 uM
[4] = Eterna round: R95, input ligand: microRNA oligo, concentration not stated
[5] = Eterna round: R95, input ligand: none
[6] = input ligand: theophylline 20 uM
[7] = input ligand: tryptophan 2.4 mM

Sequence	apparent KD of MS2 coat protein (MS2 coat protein; input ligand: FMN 200 uM) [nM]	apparent KD of MS2 coat protein (MS2 coat protein; [2]) [nM]	apparent KD of MS2 coat protein (MS2 coat protein; input ligand: none) [nM]	also measured
GUUACAUGAGGAUCACCCAUGUAUGUGUGGGAGUAAGUGUCUUAGGAUAUCUAUGGUUUAAUUUAAGAGAAGGAAGAUUGUUGU [JMF's solution 72] (Eterna round: R96, puzzle: Same State NG 3)	111	73.9	96.6	
AUUAAUUAAUUAAUACAUGAGGAUCACCCAUGUAAUAAGAUCUAGGAUAUCAGCUCGUUUAGAGCUGAGAAGGAGAUCACAUGU [SSNG3/17-A3] (Eterna round: R96, puzzle: Same State NG 3)		32.7		
CAUCCCUCCACAGGAUAUCGACCGAUAAAACGGCGAGAAGGGUGGCCACAUGAGGAUCACCCAUGUGGAAUUGGAUGAGCUACA [Enlaed] (Eterna round: R96, puzzle: Same State NG 1)	78.7	66.6	126	
AUUUAACAAGCUUUUUGCUCGUCUUAUAAACAUGAGGAUCACCCAUGUAAUAGCGUGAGAGUAAAUUAUUAAAUAAU [JMF 91] (puzzle: Sensor for hsa-mir-208a)				apparent KD of MS2 coat protein (MS2 coat protein; [3]): 13 nM; apparent KD of MS2 coat protein (MS2 coat protein; [4]): 39.9 nM; apparent KD of MS2 coat protein (MS2 coat protein; [5]): 11.9 nM
UUGCUCGUGUGAGGAUAUGCAGCCGUUUCGGCUGCAGAAGGUACUAUAAUACAUGAGGAUCACCCAUGUCUCUAUUAUUUAGUG [salish99_SSNG1_r04_926] (Eterna round: R96, puzzle: Same State NG 1)	19.5	19.2	28.7	
AUAAAACAUGAGGAUCACCCAUGUCAACAAUGUCGAGGAUAUGGGCAAAUAAAAUAAGAACCAGAAGGCGAAUAAU [salish99_ss1_r3_039] (puzzle: Same State 1)				apparent KD of MS2 coat protein (MS2 coat protein; [3]): 43.2 nM; apparent KD of MS2 coat protein (MS2 coat protein; [4]): 248 nM; apparent KD of MS2 coat protein (MS2 coat protein; [5]): 507 nM
AUUUUUAAUGCAGGAUAUGAUUAACAUGAGGAUCACCCAUGUGGUGUUGUGAGUAAGGAGAGUGAUCAGAAGGGCAUUUUUGUU [JMF's solution 85] (Eterna round: R96, puzzle: Same State NG 2)	686	466	715	
CUGAGCAAGCAAGGAUAUCACGUCGAUUAGACGUGAGAAGGUGCUCCUUACAUGAGGAUCACCCAUGUAUAACAUGAAGCUCAG [SSNG1/10-A2] (Eterna round: R96, puzzle: Same State NG 1)	190	902	1090	
UUACUCAUGUAAGGAUAUGCAGCCGAAACGGCUGCAGAAGGUACUAUAAUACAUGAGGAUCACCCAUGUAAAAUAUAUAAAGUU [Mat - Same State NG 1 - JL mod - D96] (Eterna round: R96, puzzle: Same State NG 1)	33.9	33.6	28.2	
AUAAAACAUGAGGAUCACCCAUGUCAACAAAGUCGAGGAUAUGGGCAAAUAAAAUAAGAACCAGAAGGCGAAUUAU [salish99_ss1_r3_036] (Eterna round: R96, puzzle: Same State 1)	36.8	185	247	
GAAUAAAUGAUAGGAUAUACAUGAGGAAUUCUCGUAGAAGGAUCAUGACAUGAGGAUCACCCAUGUAACGCUCGAAAGAGCGUA [Mat - Same State NG 1 - JL mod - D41] (Eterna round: R96, puzzle: Same State NG 1)	607	733	928	
GUAGCAUGCAGGCAGGAUAUUCAUAUUAAAACAUGAGGAUCACCCAUGUAGGCCAGAAGGCCUUGGGAGAAGGGCCACAUGCUAC [Xeonanis - 17] (puzzle: Same State 2)				apparent KD of MS2 coat protein (MS2 coat protein; [3]): 36.9 nM; apparent KD of MS2 coat protein (MS2 coat protein; [4]): 595 nM; apparent KD of MS2 coat protein (MS2 coat protein; [5]): 800 nM
AUUUUAGUCAGAGGAUAUUGUUUAUCUCUAUUACAAGAAGGCUGAUCUUACUACCCACUUAUGAAACAUGAGGAUCACCCAUGU [JR_SSNG1_Sub016] (Eterna round: R96, puzzle: Same State NG 1)	17.4	20.6	25.8	
GGUGCGAAUAAAGCCUACAUGAGGAUCACCCAUGUAUGUAGGCAGGAUAUCGUUUGCAAAGCAAACGAGAAGGGCUGACGCACC [Mat - Same State NG 3 - JL Mod - D49] (Eterna round: R96, puzzle: Same State NG 3)	29.3	45.7	62.4	
AUAAAACAUGAGGAUCACCCAUGUCAACAAAGUCGAGGAUAUGGGCAAAUAAAAUAAUAACCAGAAGGCGAAUAAU [salish99_ss1_r3_018] (puzzle: Same State 1)				apparent KD of MS2 coat protein (MS2 coat protein; [3]): 63.9 nM; apparent KD of MS2 coat protein (MS2 coat protein; [4]): 232 nM; apparent KD of MS2 coat protein (MS2 coat protein; [5]): 546 nM
GGCCUGAGUCAAGGAUAUGCUACCGUUUCGGUAGCAGAAGGUGAUCACAUGAGGAUCACCCAUGUUUACGCGAAGACGCGCGCC (Eterna round: R96, puzzle: Same State NG 1)	128	56.7	35.7	
AGUUAUGUAUCAGGAUAUUAGUGAUGUUUGUUUAUGUUAGUGAUGUUGAUAUUUGUUUUAUGUAUUUAAGAAGGGAUUGAGAUGU [ccgcmullin]				apparent KD of K4 kissing-loop reporter ([1]; input ligand: FMN 200 uM): 57.1 nM; apparent KD of K4 kissing-loop reporter ([1]; input ligand: arginine 13.2 mM): 20.7 nM; apparent KD of K4 kissing-loop reporter ([1]; input ligand: none): 48 nM; apparent KD of K4 kissing-loop reporter [1, 6]: 30.6 nM; apparent KD of K4 kissing-loop reporter [1, 7]: 46.6 nM
GCCGUACGCAUGGAUACCAGUUGCGAAGUGAUGUUUCGGGCGAUCAAAGGAUCGCCCAACAACCCUUGGCAGCCAUGCGUACGGC				apparent KD of K4 kissing-loop reporter ([1]; input ligand: FMN 200 uM): 216 nM; apparent KD of K4 kissing-loop reporter ([1]; input ligand: arginine 13.2 mM): 42.5 nM; apparent KD of K4 kissing-loop reporter ([1]; input ligand: none): 119 nM; apparent KD of K4 kissing-loop reporter [1, 6]: 108 nM; apparent KD of K4 kissing-loop reporter [1, 7]: 133 nM
GAUUGUGAUGGAAACAUCGCAAUCUCUGAAGGAGCGCGUGAAAACGCAGGUAGGUCGCAGGACGACAAAGACAGUGAUGUUGUCA [Ex Arginine A K4 1]				apparent KD of K4 kissing-loop reporter ([1]; input ligand: FMN 200 uM): 335 nM; apparent KD of K4 kissing-loop reporter ([1]; input ligand: arginine 13.2 mM): 319 nM; apparent KD of K4 kissing-loop reporter ([1]; input ligand: none): 311 nM; apparent KD of K4 kissing-loop reporter [1, 6]: 369 nM; apparent KD of K4 kissing-loop reporter [1, 7]: 380 nM
UAUAUAGUGACGGCCGCCACUAUAGUAAUGUUUUUGUUAGAGUGAUGUUUUGUUUUUUAAUUUUAUAGGACCGGGUUAUAUGUUA [llpmullin]				apparent KD of K4 kissing-loop reporter ([1]; input ligand: FMN 200 uM): 360 nM; apparent KD of K4 kissing-loop reporter ([1]; input ligand: arginine 13.2 mM): 218 nM; apparent KD of K4 kissing-loop reporter ([1]; input ligand: none): 374 nM; apparent KD of K4 kissing-loop reporter [1, 6]: 376 nM; apparent KD of K4 kissing-loop reporter [1, 7]: 240 nM
